Source: patent US20040072266A1, “Method of modifying cell motility via compounds and polypeptides that interact with a Wnt pathway” (priority 2002, published 2004)

B1: Wnt5a: Wnt polypeptide supplied as media pre-conditioned by 293T cells expressing Wnt5a (mouse Wnt 5A per b63) (protein, UniProt P22725 62-380, looked up)
Protein Wnt-5a: IIGAQPLCSQLAGLSQGQKKLCHLYQDHMQYIGEGAKTGIKECQYQFRHRRWNCSTVDNTSVFGRVMQIGSRETAFTYAVSAAGVVNAMSRACREGELSTCGCSRAARPKDLPRDWLWGGCGDNIDYGYRFAKEFVDARERERIHAKGSYESARILMNLHNNEAGRRTVYNLADVACKCHGVSGSCSLKTCWLQLADFRKVGDALKEKYDSAAAMRLNSRGKLVQVNSRFNSPTTQDLVYIDPSPDYCVRNESTGSLGTQGRLCNKTSEGMDGCELMCCGRGYDQFKTVQTERCHCKFHWCCYVKCKKCTEIVDQFVCK
modifications: conditioned medium from 293T cells
B2: Wnt1: Wnt polypeptide supplied as media pre-conditioned by 293T cells expressing Wnt1 (mouse Wnt 1 per b63) (protein, UniProt P04426 28-370, looked up)
Proto-oncogene Wnt-1: ANSSGRWWGIVNIASSTNLLTDSKSLQLVLEPSLQLLSRKQRRLIRQNPGILHSVSGGLQSAVRECKWQFRNRRWNCPTAPGPHLFGKIVNRGCRETAFIFAITSAGVTHSVARSCSEGSIESCTCDYRRRGPGGPDWHWGGCSDNIDFGRLFGREFVDSGEKGRDLRFLMNLHNNEAGRTTVFSEMRQECKCHGMSGSCTVRTCWMRLPTLRAVGDVLRDRFDGASRVLYGNRGSNRASRAELLRLEPEDPAHKPPSPHDLVYFEKSPNFCTYSGRLGTAGTAGRACNSSSPALDGCELLCCGRGHRTRTQRVTERCNCTFHWCCHVSCRNCTHTRVLHECL
modifications: conditioned medium from 293T cells

Test system: NIH3T3 cells
Experiment: Wnt conditioned media treatment of NIH3T3 cells, phalloidin actin staining, protrusion/filopodia count
Assay type: cell-based, mouse
Settings: NIH3T3 cells on fibronectin treated cover slips, 15 minutes in conditioned media, Alexa568 phalloidin staining
Procedure: FIG. 1: Wnt treatment increases the protrusive activity of NIH3T3 cells. NIH3T3 cells were plated at low density on fibronectin treated cover slips. After being allowed to re-attach for 12 hours, cells were placed into media that was pre-conditioned either by control 293T cells (A), 293T cells expressing Wnt1 (B) or 293T cells expressing Wnt5a (C and D). After 15 minutes in conditioned media, cells were fixed and stained with Alexa568 conjugated phalloidin to label the actin cyto-skeleton. Wnt treated cells contained higher numbers of actin based protrusions relative to control. These included filopodia (arrows in B and C) as well as membrane ruffles (arrows in D). E. The number of filopodia per cell was counted for NIH3T3 cells treated as described above. […] Columns represent the average number of filopodia per cell. N=50, 80, 76 cells for control, Wnt1 and Wnt5a, respectively. Error bars represent the standard error of the mean for each group shown.
We can use Wnt conditioned media as a source of Wnt polypeptides and fragments of them in testing the ability of a cell to modify its cell motility characteristics. […]
In FIG. 1, we show the […] after the Wnt treatment. […] The degree of motility can be measured through the number of filopodia, for example, or through assyas that measure the levels or increases in cytoskeletal proteins. […]

Molecule | number of filopodia per cell relative to control
B1 | significant increase
B2 | significant increase
